Results published in patent US20090104149A1.

Each substance was assayed against human recombinant cyclophilin (human) (UniProt P62937) (assay: competitive ELISA, human recombinant cyclophilin on coated BSA-cyclosporin A; reference cyclosporin A).
Chain of human recombinant cyclophilin (human) (P62937 whole entry): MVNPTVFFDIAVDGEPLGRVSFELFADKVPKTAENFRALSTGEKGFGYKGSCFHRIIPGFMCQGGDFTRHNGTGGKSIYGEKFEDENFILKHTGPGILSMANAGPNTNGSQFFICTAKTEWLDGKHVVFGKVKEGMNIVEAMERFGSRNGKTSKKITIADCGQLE
For “[8′-hydroxy-MeBmt]^5-Ciclosporin (peptide)”, the Binding Ratio (BR), log10 of IC50 of test compound over IC50 of cyclosporin A was 0.35 log10 ratio. In the case of [Ethyl-Val]^4-Ciclosporin (peptide), the Binding Ratio (BR), log10 of IC50 of test compound over IC50 of cyclosporin A is reported as 0 log10 ratio. [Ethyl-lle]^4-Ciclosporin (peptide) gave a Binding Ratio (BR), log10 of IC50 of test compound over IC50 of cyclosporin A of 0.1 log10 ratio. [MeAla]^6-Ciclosporin (peptide) showed a Binding Ratio (BR), log10 of IC50 of test compound over IC50 of cyclosporin A of -0.4 log10 ratio. [MeVal]^4-Ciclosporin (peptide) was tested, and the Binding Ratio (BR), log10 of IC50 of test compound over IC50 of cyclosporin A was 0.1 log10 ratio. [MeVal]^5-Ciclosporin (peptide) gave a Binding Ratio (BR), log10 of IC50 of test compound over IC50 of cyclosporin A of 0.4 log10 ratio. In the case of [Melle]^4-Ciclosporin (peptide), the Binding Ratio (BR), log10 of IC50 of test compound over IC50 of cyclosporin A is reported as -0.2 log10 ratio. In the case of “[dihydro-MeBmt]^1-[γ-hydroxy-MeLeu]^4-Ciclosporin (peptide)”, the Binding Ratio (BR), log10 of IC50 of test compound over IC50 of cyclosporin A is reported as 0.1 log10 ratio. “[γ-hydroxy-MeLeu]^4-Ciclosporin (peptide)” was tested, and the Binding Ratio (BR), log10 of IC50 of test compound over IC50 of cyclosporin A was 0.4 log10 ratio. Substance “[γ-hydroxy-MeLeu]^9-Ciclosporin (peptide)” has a Binding Ratio (BR), log10 of IC50 of test compound over IC50 of cyclosporin A of 0.15 log10 ratio.
